Assay results reported in article PMC4604684, “Characterisation of the Cullin-3 mutation that causes a severe form of familial hypertension and hyperkalaemia” (EMBO Molecular Medicine, 2015).

Molecular target: T1, CUL3^WT-RBX1 complex, purified, tag cleaved (human, UniProt Q13618-1 1-768; P62877 1-108)
T1 construct: Cullin-3, human, wild type; RBX1, human, untagged; The pull-down sections call this protein only CUL3^WT; also called CUL3-RBX1; not shown: DAC, N-terminal, cleaved
Assay: pull-down; purified GST-CAND1 or GST on glutathione-sepharose; incubated with purified CUL3^WT or CUL3^Δ403–459 at 4°C for 1 h; washed thrice; SDS-PAGE, Coomassie
Conditions: both partners purified

T1 sequence (Q13618 whole entry, chain 1 of 2): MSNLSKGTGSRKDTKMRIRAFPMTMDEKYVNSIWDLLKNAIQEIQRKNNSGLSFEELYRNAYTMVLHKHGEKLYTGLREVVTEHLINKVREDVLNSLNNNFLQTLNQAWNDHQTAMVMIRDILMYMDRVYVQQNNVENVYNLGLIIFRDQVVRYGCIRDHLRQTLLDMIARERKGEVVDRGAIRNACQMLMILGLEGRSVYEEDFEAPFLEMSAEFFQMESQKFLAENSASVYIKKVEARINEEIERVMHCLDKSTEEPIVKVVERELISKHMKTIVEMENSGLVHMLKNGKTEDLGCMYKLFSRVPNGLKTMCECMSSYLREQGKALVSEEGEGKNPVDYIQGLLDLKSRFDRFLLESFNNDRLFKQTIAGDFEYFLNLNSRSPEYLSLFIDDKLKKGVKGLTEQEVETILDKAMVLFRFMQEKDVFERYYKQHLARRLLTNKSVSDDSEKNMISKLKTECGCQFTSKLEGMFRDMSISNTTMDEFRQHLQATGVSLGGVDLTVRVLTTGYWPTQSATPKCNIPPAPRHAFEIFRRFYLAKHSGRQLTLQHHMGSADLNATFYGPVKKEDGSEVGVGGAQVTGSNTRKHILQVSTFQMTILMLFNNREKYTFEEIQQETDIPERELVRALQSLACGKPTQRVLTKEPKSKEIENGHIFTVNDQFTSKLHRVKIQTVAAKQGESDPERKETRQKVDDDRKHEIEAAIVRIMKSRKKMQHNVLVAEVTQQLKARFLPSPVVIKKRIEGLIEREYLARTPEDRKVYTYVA
T1 sequence (P62877 whole entry, chain 2 of 2): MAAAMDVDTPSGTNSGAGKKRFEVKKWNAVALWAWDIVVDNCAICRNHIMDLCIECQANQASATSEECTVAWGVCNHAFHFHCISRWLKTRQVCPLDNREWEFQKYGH

B1: GST-CAND1 (natural protein, human, UniProt Q86VP6-1 1-1230, looked up)
chain: MASASYHISNLLEKMTSSDKDFRFMATNDLMTELQKDSIKLDDDSERKVVKMILKLLEDKNGEVQNLAVKCLGPLVSKVKEYQVETIVDTLCTNMLSDKEQLRDISSIGLKTVIGELPPASSGSALAANVCKKITGRLTSAIAKQEDVSVQLEALDIMADMLSRQGGLLVNFHPSILTCLLPQLTSPRLAVRKRTIIALGHLVMSCGNIVFVDLIEHLLSELSKNDSMSTTRTYIQCIAAISRQAGHRIGEYLEKIIPLVVKFCNVDDDELREYCIQAFESFVRRCPKEVYPHVSTIINICLKYLTYDPNYNYDDEDEDENAMDADGGDDDDQGSDDEYSDDDDMSWKVRRAAAKCLDAVVSTRHEMLPEFYKTVSPALISRFKEREENVKADVFHAYLSLLKQTRPVQSWLCDPDAMEQGETPLTMLQSQVPNIVKALHKQMKEKSVKTRQCCFNMLTELVNVLPGALTQHIPVLVPGIIFSLNDKSSSSNLKIDALSCLYVILCNHSPQVFHPHVQALVPPVVACVGDPFYKITSEALLVTQQLVKVIRPLDQPSSFDATPYIKDLFTCTIKRLKAADIDQEVKERAISCMGQIICNLGDNLGSDLPNTLQIFLERLKNEITRLTTVKALTLIAGSPLKIDLRPVLGEGVPILASFLRKNQRALKLGTLSALDILIKNYSDSLTAAMIDAVLDELPPLISESDMHVSQMAISFLTTLAKVYPSSLSKISGSILNELIGLVRSPLLQGGALSAMLDFFQALVVTGTNNLGYMDLLRMLTGPVYSQSTALTHKQSYYSIAKCVAALTRACPKEGPAVVGQFIQDVKNSRSTDSIRLLALLSLGEVGHHIDLSGQLELKSVILEAFSSPSEEVKSAASYALGSISVGNLPEYLPFVLQEITSQPKRQYLLLHSLKEIISSASVVGLKPYVENIWALLLKHCECAEEGTRNVVAECLGKLTLIDPETLLPRLKGYLISGSSYARSSVVTAVKFTISDHPQPIDPLLKNCIGDFLKTLEDPDLNVRRVALVTFNSAAHNKPSLIRDLLDTVLPHLYNETKVRKELIREVEMGPFKHTVDDGLDIRKAAFECMYTLLDSCLDRLDIFEFLNHVEDGLKDHYDIKMLTFLMLVRLSTLCPSAVLQRLDRLVEPLRATCTTKVKANSVKQEFEKQDELKRSAMRAVAALLTIPEAEKSPLMSEFQSQISSNPELAAIFESIQKDSSSTNLESMDTS
notes: CAND1, human, ORF amplified from an EST IMAGE clone and subcloned into pGEX6P-2; source: E. coli BL21, purified (glutathione resin, eluted with glutathione, dialysed); not shown: GST, N-terminal, kept
Q: Does B1 bind?
A: Result: binds
